Reference: patent publication US20230322927A1 (Regeneron, published 2023)
Residue numbers refer to the chain shown, from its start. Values belong to the binder of their own block, whether it stands above or below them.

Tests used:
human EGFR on cells [1] = target: T1, human EGFR on cells (human, UniProt P00533 25-1210); assay: cell-based or functional assay
human CD28 on cells = human CD28 on cells (human, UniProt P10747 19-220); assay: cell-based or functional assay
human EGFR on cells [2] = target: T1, human EGFR on cells; assay: flow cytometry titration on A375 cells
Method: (§1) After incubation, the cells were washed twice with cold PBS containing 1% filtered FBS and a Fluorophore-conjugated anti-human secondary antibody was added to the cells and incubated for an additional 30 minutes. Live/dead dye was added to Human and Cynomolgus T cells incubations. Wells containing no antibody or secondary only were used as a control.
(§2) After incubation with EGFR expressing cells, cells were washed, re-suspended in 200 μL cold PBS containing 1% filtered FBS and analyzed by flow cytometry on a BD FACS Canto II.

human EGFR on cells [3] = target: T1, human EGFR on cells; assay: flow cytometry titration on PEO1 cells
Method: as §1, §2

human EGFR on cells [4] = target: T1, human EGFR on cells; assay: flow cytometry titration on 22RV1 cells
Method: as §1, §2

human EGFR on cells [5] = target: T1, human EGFR on cells; assay: flow cytometry titration on CASKI cells
[6] = target: T2, hEGFR(ECD).CPGG.MMH6 (REGN355) (human, UniProt P00533 25-647); assay: SPR (Biacore 4000) at 25 C; antibody captured on anti-human Fc, hEGFR.mmH injected
T2 construct: Soluble extracellular domain with a myc-myc-hexahistidine tag; also called hEGFR.mmH; hEGFR.mmh
Method: Association was monitored for 5 minutes, and the dissociation of hEGFR.mmH in HBS-EP running buffer was monitored for 10 minutes. All of the binding kinetics experiments were performed at 25° C. Kinetic association (kₐ) and dissociation (kd) rate constants were determined by fitting the real-time sensorgrams to a 1:1 binding model using Scrubber 2.0c curve fitting software.

hCD28.mFc (REGN2012) [7] = target: T3, hCD28.mFc (REGN2012) (human, UniProt P10747 19-152, limits assumed); assay: SPR (Biacore T-200) at 25 C; hCD28.mFc captured on anti-mouse Fc, antibody injected
T3 construct: also called Human CD28-mFc; hCD28 with a C-terminal mouse Fc tag; not shown: C-terminal mouse Fc tag

[8] = target: T2, hEGFR(ECD).CPGG.MMH6 (REGN355); assay: SPR (Biacore) at 25 C; antibody captured on anti-hFc, hEGFR.mmH injected
[9] = target: T2, hEGFR(ECD).CPGG.MMH6 (REGN355); assay: SPR (Biacore) at 37 C; antibody captured on anti-hFc, hEGFR.mmH injected
Method: SPR Kinetics Method: Kinetics binding parameters were determined via surface plasmon resonance (SPR) using a T-200 instrument and CM5 sensors (GE Healthcare). Double-referenced sensorgrams were globally fit to a 1:1 binding model using Scrubber (BioLogics Software). The dissociation rate constant (kd) was determined by fitting the change in the binding response during the dissociation phase, and the association rate constant (ka) was determined by fitting analyte binding at different concentrations. The KD was calculated from the ratio of the kd and ka.
A six-point, three-fold dilution series of hEGFR.mmH starting at 30 nM was injected over this surface at a flow rate of 50 uL/min for 5 minutes. Surface was regenerated with a 10 second pulse of 20 mM H3PO4. Dissociation was measured for 10 minutes. Sensorgrams were processed and fit as described above.

hCD28.mFc (REGN2012) [10] = target: T3, hCD28.mFc (REGN2012); assay: SPR (Biacore) at 25 C; hCD28.mFc captured on anti-mFc, antibody injected
hCD28.mFc (REGN2012) [11] = target: T3, hCD28.mFc (REGN2012); assay: SPR (Biacore) at 37 C; hCD28.mFc captured on anti-mFc, antibody injected
Method: SPR Kinetics Method: Kinetics binding parameters were determined via surface plasmon resonance (SPR) using a T-200 instrument and CM5 sensors (GE Healthcare). Double-referenced sensorgrams were globally fit to a 1:1 binding model using Scrubber (BioLogics Software). The dissociation rate constant (kd) was determined by fitting the change in the binding response during the dissociation phase, and the association rate constant (ka) was determined by fitting analyte binding at different concentrations. The KD was calculated from the ratio of the kd and ka. The dissociative half-life (t½) was calculated as In2/kd and converted to minutes.
CD28 Capture Method Specifics: An anti-mFc polyclonal Ab (GE) was coupled to a CM5 sensor surface using traditional EDC/NHS coupling chemistry. ˜30RUs of hCD28.mFc were captured on this surface. […] Dissociation was measured for 5 minutes. Surface was regenerated with a 40 second injection of 10 mM glycine, pH 1.5. Sensorgrams were processed and fit as described above.

IC50 [M] of inhibition of BaF3/hEGFR proliferation in presence of 0.5 nM hTGFβ (human EGFR on cells [1]): 6.55e-09 M
Inhibition [%] of BaF3/hEGFR proliferation in presence of 0.5 nM hEGF (human EGFR on cells [1]): 93.2%
Inhibition [%] of BaF3/hEGFR proliferation in presence of 0.5 nM hTGFβ (human EGFR on cells [1]): 97.2%
B1: mAb13006P2 (antibody, V domains shown)
VH: QVQLQESGPGLVKPSETLSLTCTVSDDSIISYYWSWIRQPPGKGLEWIGYIYYSGRTNYNPSLKSRVTISVDTSKNQVSLKLNSVIAADTAVYYCARVSEDSYYHYGMDVWGQGTTVTVSS
VL: not shown

IC50 [M] of inhibition of BaF3/hEGFR proliferation in presence of 0.5 nM hEGF (human EGFR on cells [1]): 1.98e-08 M
IC50 [M] of inhibition of BaF3/hEGFR proliferation in presence of 0.5 nM hTGFβ (human EGFR on cells [1]): 7.79e-09 M
Inhibition [%] of BaF3/hEGFR proliferation in presence of 0.5 nM hEGF (human EGFR on cells [1]): 91.8%
Inhibition [%] of BaF3/hEGFR proliferation in presence of 0.5 nM hTGFβ (human EGFR on cells [1]): 95.9%
B2: mAb12999P2 (antibody, V domains shown)
VH: B1 VH with D26G, S31T, Y32F, K43R, R56I, N83S, I86T, Y104F
VL: not shown

EC50 [M] of increase of BaF3/hEGFR proliferation in presence of 0.5 nM hTGFβ (human EGFR on cells [1]): 9.14e-10 M
IC50 [M] of inhibition of BaF3/hEGFR proliferation in presence of 0.5 nM hEGF (human EGFR on cells [1]): 2.55e-09 M
Inhibition [%] of BaF3/hEGFR proliferation in presence of 0.5 nM hEGF (human EGFR on cells [1]): 29.6%
B6: mAb35193P2 (antibody, V domains shown)
VH: EVQLVESGGGLVKPGGSLRLSCTASGFSFRDAWMTWVRQVPGKGLEWVGRIRNKIDGGTTDYNTPVKDRFTISRDDSKNTLYLQMNSLKTEDTAVYYCTTDIWNYVLFYYYGLDVWGQGTTVTVSS
VL: not shown

More lines, now with the values behind:

B3: REGN6322 (bispecific antibody, human IgG4 S228P, kappa)
heavy 1: EVQLVESGGGLVKPGGSLRLSCTASGFSFRDAWMTWVRQVPGKGLEWVGRIRNKIDGGTTDYNTPVKDRFTISRDDSKNTLYLQMNSLKTEDTAVYYCTTDIWNYVLFYYYGLDVWGQGTTVTVSSASTKGPSVFPLAPCSRSTSESTAALGCLVKDYFPEPVTVSWNSGALTSGVHTFPAVLQSSGLYSLSSVVTVPSSSLGTKTYTCNVDHKPSNTKVDKRVESKYGPPCPPCPAPPVAGPSVFLFPPKPKDTLMISRTPEVTCVVVDVSQEDPEVQFNWYVDGVEVHNAKTKPREEQFNSTYRVVSVLTVLHQDWLNGKEYKCKVSNKGLPSSIEKTISKAKGQPREPQVYTLPPSQEEMTKNQVSLTCLVKGFYPSDIAVEWESNGQPENNYKTTPPVLDSDGSFFLYSRLTVDKSRWQEGNVFSCSVMHEALHNHYTQKSLSLSLGK
heavy 2: QVQLQESGPGLVKPSETLSLTCTVSGGSISSYYWSWIRQPPGKGLEWIGYIYYSGITHYNPSLKSRVTISVDTSKIQFSLKLSSVTAADTAVYYCARWGVRRDYYYYGMDVWGQGTTVTVSSASTKGPSVFPLAPCSRSTSESTAALGCLVKDYFPEPVTVSWNSGALTSGVHTFPAVLQSSGLYSLSSVVTVPSSSLGTKTYTCNVDHKPSNTKVDKRVESKYGPPCPPCPAPPVAGPSVFLFPPKPKDTLMISRTPEVTCVVVDVSQEDPEVQFNWYVDGVEVHNAKTKPREEQFNSTYRVVSVLTVLHQDWLNGKEYKCKVSNKGLPSSIEKTISKAKGQPREPQVYTLPPSQEEMTKNQVSLTCLVKGFYPSDIAVEWESNGQPENNYKTTPPVLDSDGSFFLYSRLTVDKSRWQEGNVFSCSVMHEALHNRFTQKSLSLSPGK
light: not shown
notes: EGFR arm from mAb35193P2, CD28 arm from mAb14226; also called bsAb6322; EGFRxCD28
EC50 [M] of increase of BaF3/hEGFR proliferation in presence of 0.5 nM hTGFβ (human EGFR on cells [1]): 3.67e-09 M
IL-2 Release MAX (pg/mL), human CD3+ T cells + NCI-H292 cells, with 20 nM IsoC-1 (human CD28 on cells): 8.02 pg/mL
IL-2 Release MAX (pg/mL), human CD3+ T cells + NCI-H292 cells, with 20 nM cemiplimab (human CD28 on cells): 21.8 pg/mL
Proliferation MAX (CPM), human CD3+ T cells + NCI-H292 cells, with 20 nM IsoC-1 (human CD28 on cells): 1860 CPM
Proliferation MAX (CPM), human CD3+ T cells + NCI-H292 cells, with 20 nM cemiplimab (human CD28 on cells): 2380 CPM
EC50 (human EGFR on cells [2]): 4.64 nM
EC50 (human EGFR on cells [3]): 5.77 nM
EC50 (human EGFR on cells [4]): 9.58 nM
EC50 (human EGFR on cells [5]): 24.4 nM
Kd [6]: 9.38 nM
koff [6]: 0.00146 s⁻¹
kon [6]: 156000 M⁻¹ s⁻¹
t½ [6]: 7.9 min
Kd (hCD28.mFc (REGN2012) [7]): 10.3 nM
koff (hCD28.mFc (REGN2012) [7]): 0.00268 s⁻¹
kon (hCD28.mFc (REGN2012) [7]): 261000 M⁻¹ s⁻¹
t½ (hCD28.mFc (REGN2012) [7]): 4.3 min

B4: REGN6321 (bispecific antibody, human IgG4 S228P, kappa)
heavy 1: EVQLVESGGGLVRPGGSLRLSCTASGFTFSTFIMFWVRQAPGKGLEYVSSISSNGGTIYYADSVKGRFTISRDNSKNTLYLQMGSLRAEDMAVYYCTRGGDFWSGYYPFDYWGQGTLVTVSSASTKGPSVFPLAPCSRSTSESTAALGCLVKDYFPEPVTVSWNSGALTSGVHTFPAVLQSSGLYSLSSVVTVPSSSLGTKTYTCNVDHKPSNTKVDKRVESKYGPPCPPCPAPPVAGPSVFLFPPKPKDTLMISRTPEVTCVVVDVSQEDPEVQFNWYVDGVEVHNAKTKPREEQFNSTYRVVSVLTVLHQDWLNGKEYKCKVSNKGLPSSIEKTISKAKGQPREPQVYTLPPSQEEMTKNQVSLTCLVKGFYPSDIAVEWESNGQPENNYKTTPPVLDSDGSFFLYSRLTVDKSRWQEGNVFSCSVMHEALHNHYTQKSLSLSLGK
heavy 2: B3 heavy 2
light: not shown
notes: also called bsAb6321; EGFRxCD28
EC50 (human EGFR on cells [2]): 5.42 nM
EC50 (human EGFR on cells [5]): 16.9 nM
Kd [6]: 0.634 nM
koff [6]: 4.63e-05 s⁻¹
kon [6]: 73000 M⁻¹ s⁻¹
t½ [6]: 249 min
Kd (hCD28.mFc (REGN2012) [7]): 10.8 nM
koff (hCD28.mFc (REGN2012) [7]): 0.00281 s⁻¹
kon (hCD28.mFc (REGN2012) [7]): 259000 M⁻¹ s⁻¹
t½ (hCD28.mFc (REGN2012) [7]): 4.1 min

B5: REGN7075 (bispecific antibody, human IgG4 S228P, kappa)
heavy 1: QVQLQESGPGLVKPSETLSLTCTVSGDSIITFYWSWIRQPPGRGLEWIGYIYYSGITNYNPSLKSRVTISVDTSKNQVSLKLSSVTAADTAVYYCARVSEDSYFHYGMDVWGQGTTVTVSSASTKGPSVFPLAPCSRSTSESTAALGCLVKDYFPEPVTVSWNSGALTSGVHTFPAVLQSSGLYSLSSVVTVPSSSLGTKTYTCNVDHKPSNTKVDKRVESKYGPPCPPCPAPPVAGPSVFLFPPKPKDTLMISRTPEVTCVVVDVSQEDPEVQFNWYVDGVEVHNAKTKPREEQFNSTYRVVSVLTVLHQDWLNGKEYKCKVSNKGLPSSIEKTISKAKGQPREPQVYTLPPSQEEMTKNQVSLTCLVKGFYPSDIAVEWESNGQPENNYKTTPPVLDSDGSFFLYSRLTVDKSRWQEGNVFSCSVMHEALHNHYTQKSLSLSLGK
heavy 2: B3 heavy 2
light: not shown
notes: EGFR arm from mAb12999P2, CD28 arm from mAb14226; also called bsAb7075; H4sH24623D
Inhibition [%] of BaF3/hEGFR proliferation in presence of 0.5 nM hEGF (human EGFR on cells [1]): -6.8%
Inhibition [%] of BaF3/hEGFR proliferation in presence of 0.5 nM hTGFβ (human EGFR on cells [1]): 11.2%
IL-2 Release MAX (pg/mL), human CD3+ T cells + NCI-H292 cells, with 20 nM IsoC-1 (human CD28 on cells): 12.7 pg/mL
IL-2 Release MAX (pg/mL), human CD3+ T cells + NCI-H292 cells, with 20 nM cemiplimab (human CD28 on cells): 27.2 pg/mL
Proliferation EC50 [M], human CD3+ T cells + NCI-H292 cells, with 20 nM IsoC-1 (human CD28 on cells): 3.92e-11 M
Proliferation EC50 [M], human CD3+ T cells + NCI-H292 cells, with 20 nM cemiplimab (human CD28 on cells): 2.16e-11 M
Proliferation MAX (CPM), human CD3+ T cells + NCI-H292 cells, with 20 nM IsoC-1 (human CD28 on cells): 1880 CPM
Proliferation MAX (CPM), human CD3+ T cells + NCI-H292 cells, with 20 nM cemiplimab (human CD28 on cells): 3250 CPM
EC50 (human EGFR on cells [3]): 1.22 nM
EC50 (human EGFR on cells [5]): 2.05 nM
Kd [8]: 2.8 nM
koff [8]: 0.000433 s⁻¹
kon [8]: 154000 M⁻¹ s⁻¹
t½ [8]: 26.7 min
Kd [9]: 0.933 nM
koff [9]: 0.000412 s⁻¹
kon [9]: 441000 M⁻¹ s⁻¹
Kd (hCD28.mFc (REGN2012) [10]): 10.7 nM
koff (hCD28.mFc (REGN2012) [10]): 0.00314 s⁻¹
kon (hCD28.mFc (REGN2012) [10]): 294000 M⁻¹ s⁻¹
t½ (hCD28.mFc (REGN2012) [10]): 3.7 min
Kd (hCD28.mFc (REGN2012) [11]): 51.7 nM
koff (hCD28.mFc (REGN2012) [11]): 0.0131 s⁻¹
kon (hCD28.mFc (REGN2012) [11]): 254000 M⁻¹ s⁻¹
t½ (hCD28.mFc (REGN2012) [11]): 0.9 min
